Experimental data from PMC5429695, “Assembly of Ruminococcus flavefaciens cellulosome revealed by structures of two cohesin-dockerin complexes” (Scientific Reports, 2017).

Assays:
Assay in all cases: ITC; 308 K; dockerin in the cell (stirred at 307 revolutions/min) titrated with 28 injections of 10 uL cohesin at 220 s intervals; proteins in 50 mM HEPES pH 7.5, 0.5 mM CaCl2, 0.5 mM TCEP; single-site model
Details in all cases: both partners purified
[1] = molecular target: T1, RfDoc1a S40A, thioredoxin A fusion (R. flavefaciens FD-1)
T1 construct: numbers count on: the recombinant construct of the crystal structure (RfDoc1a numbering of PDB 5M2O); mutant of m3 (pHTP2 derivative); see the note of m3 on limits and numbering; source: E. coli, purified (IMAC, His GraviTrap)

[2] = molecular target: T2, RfDoc1a, group 1a dockerin, thioredoxin A fusion, wild type (R. flavefaciens FD-1)
T2 construct: numbers count on: the recombinant construct of the crystal structure (RfDoc1a numbering, residues 23-96 seen in PDB 5M2O); also called Doc1aWT; source: E. coli, purified (IMAC, His GraviTrap)

[3] = molecular target: T3, RfDoc1a Q47A, thioredoxin A fusion (R. flavefaciens FD-1)
T3 construct: numbers count on: the recombinant construct of the crystal structure (RfDoc1a numbering of PDB 5M2O); mutant of m3 (pHTP2 derivative); see the note of m3 on limits and numbering; source: E. coli, purified (IMAC, His GraviTrap)

[4] = molecular target: T4, RfDoc1a I39A, thioredoxin A fusion (R. flavefaciens FD-1)
T4 construct: numbers count on: the recombinant construct of the crystal structure (RfDoc1a numbering of PDB 5M2O); mutant of m3 (pHTP2 derivative); see the note of m3 on limits and numbering; source: E. coli, purified (IMAC, His GraviTrap)

[5] = molecular target: T5, RfDoc1a Q83A, thioredoxin A fusion (R. flavefaciens FD-1)
T5 construct: numbers count on: the recombinant construct of the crystal structure (RfDoc1a numbering of PDB 5M2O); mutant of m3 (pHTP2 derivative); see the note of m3 on limits and numbering; source: E. coli, purified (IMAC, His GraviTrap)

[6] = molecular target: T6, RfDoc1a K54A, thioredoxin A fusion (R. flavefaciens FD-1)
T6 construct: numbers count on: the recombinant construct of the crystal structure (RfDoc1a numbering of PDB 5M2O); mutant of m3 (pHTP2 derivative); see the note of m3 on limits and numbering; source: E. coli, purified (IMAC, His GraviTrap)

[7] = molecular target: T7, RfDoc1a L87A, thioredoxin A fusion (R. flavefaciens FD-1)
T7 construct: numbers count on: the recombinant construct of the crystal structure (RfDoc1a numbering of PDB 5M2O); mutant of m3 (pHTP2 derivative); see the note of m3 on limits and numbering; source: E. coli, purified (IMAC, His GraviTrap)

[8] = molecular target: T8, RfDoc1a V43A + Q47A, thioredoxin A fusion (R. flavefaciens FD-1)
T8 construct: numbers count on: the recombinant construct of the crystal structure (RfDoc1a numbering of PDB 5M2O); mutant of m3 (pHTP2 derivative); see the note of m3 on limits and numbering; source: E. coli, purified (IMAC, His GraviTrap)

[9] = molecular target: T9, RfDoc1b, group 1b dockerin, thioredoxin A fusion, wild type (R. flavefaciens FD-1)
T9 construct: group 1b dockerin (Doc1b), C-terminal component of protein WP_009982745, a family 9 glycoside hydrolase of R. flavefaciens FD-1, residues 783-862; numbers count on: the recombinant construct of the crystal structure (RfDoc1b numbering, residues 24-102 seen in PDB 5M2S); also called Doc1bWT; Doc1b WT; source: E. coli, purified (IMAC, His GraviTrap)

[10] = molecular target: T10, RfDoc1a V43A, thioredoxin A fusion (R. flavefaciens FD-1)
T10 construct: numbers count on: the recombinant construct of the crystal structure (RfDoc1a numbering of PDB 5M2O); mutant of m3 (pHTP2 derivative); see the note of m3 on limits and numbering; source: E. coli, purified (IMAC, His GraviTrap)

B1: RfCohScaB3, ScaB cohesin 3 with C-terminal hexa-histidine tag, wild type (domain or fragment)
chain: MPVANADVVFDFQNYTAKAGDEVTVDVLVDSKNKPISAMDVKFKVDSPLTIEEIDKESLAFNTTVMTNMAILGANFKSLDDKGEPLVPKDGAAVFTLYVNVPANTPDGTYYVGFNGKNEVHKSNDGSQFTVASKNGAITVGTPNEEG
- Ka [1]: 1.09e+08 M⁻¹
- dH [1]: -46.6 ± 0.15 kcal/mol
- stoichiometry N [1]: 1
- Ka [2]: 1.18e+08 M⁻¹
- dH [2]: -50.68 ± 0.29 kcal/mol
- stoichiometry N [2]: 1
- Ka [3]: 1.71e+07 M⁻¹
- dH [3]: -48.27 ± 0.12 kcal/mol
- stoichiometry N [3]: 1
- Ka [4]: 3.86e+06 M⁻¹
- dH [4]: -57.26 ± 0.12 kcal/mol
- stoichiometry N [4]: 1
- Ka [5]: 1.54e+08 M⁻¹
- dH [5]: -39.5 ± 0.83 kcal/mol
- stoichiometry N [5]: 1
- Ka [6]: 1.96e+07 M⁻¹
- dH [6]: -59.73 ± 0.25 kcal/mol
- stoichiometry N [6]: 1
- Ka [7]: 2.81e+07 M⁻¹
- dH [7]: -59.84 ± 0.19 kcal/mol
- stoichiometry N [7]: 1
- Ka [8]: 436000 M⁻¹
- dH [8]: -48.79 ± 0.39 kcal/mol
- stoichiometry N [8]: 1
- Ka [9]: 1.03e+07 M⁻¹
- dH [9]: -64.94 ± 0.44 kcal/mol
- stoichiometry N [9]: 1
- Ka [10]: 1.91e+06 M⁻¹
- dH [10]: -52.08 ± 0.14 kcal/mol
- stoichiometry N [10]: 1
